Assay [1] deals with RIR +11 (rat insulin receptor, B isoform) (Rattus norvegicus, UniProt P15127). Briefly: Binding of IM peptides to IR isoform RIR +11. The conditions noted are these: +11 (B) isoform. The source says:
(§1) A number of IRBPs (S519; S557; S597; S636; S667; S733; S671; S660; S696; S574; S700; S626; and S726), some of which described in the prior patent documents, were applied to A and B isoforms (−11 and +11 isoforms) of the human, rat, and pig insulin receptors (HIR, RIR, and PIR) using standard methods.

Assay [2] concerns the target T1, pig insulin receptor isoform without exon 11 (pig, UniProt F1SCK8 28-746; F1SCK8 751-1370).
T1 construct: also called PIR-11; PIR - 11
Briefly: receptor binding, standard methods (FIG. 2).
Description: as §1

In assay [3] the target is T2, human insulin receptor isoform without exon 11 (human, UniProt P06213-2 28-1370, limits assumed).
T2 construct: also called HIR-11; HIR - 11
Kind of assay: receptor binding, standard methods (FIG. 2).
Description: as §1

In assay [4] the target is T3, pig insulin receptor isoform with exon 11 (pig, UniProt F1SCL0 28-758; F1SCL0 763-1382).
T3 construct: also called PIR+11; PIR + 11
Kind of assay: receptor binding, standard methods (FIG. 2).
Description: as §1

Assay [5] has as its target T4, rat insulin receptor isoform without exon 11 (rat, UniProt P15127-2 27-1371, limits assumed).
T4 construct: also called RIR-11; RIR - 11
Kind of assay: receptor binding, standard methods (FIG. 2).
Description: as §1

For assay [6], the target named is insulin receptor on mouse adipocytes (mouse, UniProt P15208 28-1372). Briefly: cell-based or functional assay.
Assay [7] concerns the target human insulin receptor isoform with exon 11 (human) (UniProt P06213). Briefly: receptor binding, standard methods (FIG. 2).
Assay [8] has as its target rat insulin receptor isoform with exon 11 (rat) (UniProt P15127). Kind of assay: receptor binding, standard methods (FIG. 2).

Ends that are not written are not given here.

Chain of rat insulin receptor isoform with exon 11 (rat) (P15127 27-1383, stated change not applied): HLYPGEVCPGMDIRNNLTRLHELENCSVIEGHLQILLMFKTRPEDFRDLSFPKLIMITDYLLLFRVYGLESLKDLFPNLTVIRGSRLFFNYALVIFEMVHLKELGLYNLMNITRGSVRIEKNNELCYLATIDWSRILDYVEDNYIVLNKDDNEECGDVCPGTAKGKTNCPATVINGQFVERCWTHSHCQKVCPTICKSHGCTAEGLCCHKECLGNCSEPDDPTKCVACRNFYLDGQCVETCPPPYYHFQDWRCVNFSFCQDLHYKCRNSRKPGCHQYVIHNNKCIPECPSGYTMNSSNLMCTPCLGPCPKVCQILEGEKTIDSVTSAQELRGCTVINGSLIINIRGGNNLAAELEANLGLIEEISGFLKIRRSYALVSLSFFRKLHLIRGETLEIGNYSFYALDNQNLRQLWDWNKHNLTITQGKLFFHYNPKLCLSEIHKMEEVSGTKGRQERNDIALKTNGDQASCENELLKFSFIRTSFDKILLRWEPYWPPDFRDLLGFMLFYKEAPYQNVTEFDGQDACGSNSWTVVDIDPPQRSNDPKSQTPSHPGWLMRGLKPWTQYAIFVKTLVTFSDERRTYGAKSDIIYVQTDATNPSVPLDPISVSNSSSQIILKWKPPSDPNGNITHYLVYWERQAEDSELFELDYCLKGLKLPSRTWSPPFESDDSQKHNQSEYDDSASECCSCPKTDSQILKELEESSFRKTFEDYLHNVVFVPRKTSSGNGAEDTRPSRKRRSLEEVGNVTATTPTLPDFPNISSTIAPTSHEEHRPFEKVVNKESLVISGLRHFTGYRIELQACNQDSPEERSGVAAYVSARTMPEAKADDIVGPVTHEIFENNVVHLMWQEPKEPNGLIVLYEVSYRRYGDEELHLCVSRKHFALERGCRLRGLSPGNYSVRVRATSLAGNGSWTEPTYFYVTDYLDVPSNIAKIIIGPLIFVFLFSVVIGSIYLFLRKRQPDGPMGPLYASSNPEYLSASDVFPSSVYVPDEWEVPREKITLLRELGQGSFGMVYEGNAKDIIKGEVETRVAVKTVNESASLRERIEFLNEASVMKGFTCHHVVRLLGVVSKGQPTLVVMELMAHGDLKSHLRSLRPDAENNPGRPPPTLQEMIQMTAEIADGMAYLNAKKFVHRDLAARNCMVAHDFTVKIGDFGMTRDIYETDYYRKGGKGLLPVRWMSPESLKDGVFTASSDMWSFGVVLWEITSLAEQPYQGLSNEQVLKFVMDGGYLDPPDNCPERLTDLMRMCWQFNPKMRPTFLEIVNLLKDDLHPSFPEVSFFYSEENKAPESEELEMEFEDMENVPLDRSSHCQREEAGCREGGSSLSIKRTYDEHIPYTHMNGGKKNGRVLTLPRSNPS
T3 sequence (alpha, as listed by the source limits assumed, stated change not applied, form in doubt, chain 1 of 2): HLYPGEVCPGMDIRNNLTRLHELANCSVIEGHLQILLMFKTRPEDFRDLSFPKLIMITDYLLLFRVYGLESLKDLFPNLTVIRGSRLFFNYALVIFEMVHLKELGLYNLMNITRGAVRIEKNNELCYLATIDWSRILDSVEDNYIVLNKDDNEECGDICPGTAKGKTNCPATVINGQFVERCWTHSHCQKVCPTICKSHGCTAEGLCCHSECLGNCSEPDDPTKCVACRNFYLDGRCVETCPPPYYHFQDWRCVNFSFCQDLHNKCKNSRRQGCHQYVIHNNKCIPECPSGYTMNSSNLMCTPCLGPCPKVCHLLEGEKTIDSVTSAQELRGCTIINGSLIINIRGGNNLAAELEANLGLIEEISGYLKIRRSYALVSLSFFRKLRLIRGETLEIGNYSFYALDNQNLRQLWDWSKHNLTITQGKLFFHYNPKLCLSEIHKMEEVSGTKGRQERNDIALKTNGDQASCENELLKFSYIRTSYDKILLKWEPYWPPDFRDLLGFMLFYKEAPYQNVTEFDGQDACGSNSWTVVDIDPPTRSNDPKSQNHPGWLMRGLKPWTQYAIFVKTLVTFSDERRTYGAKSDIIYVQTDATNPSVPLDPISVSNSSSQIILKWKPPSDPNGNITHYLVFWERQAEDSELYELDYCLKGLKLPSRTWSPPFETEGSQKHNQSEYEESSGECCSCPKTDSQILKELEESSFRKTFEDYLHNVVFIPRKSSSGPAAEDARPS
T3 sequence (beta, as listed by the source limits assumed, stated change not applied, form in doubt, chain 2 of 2): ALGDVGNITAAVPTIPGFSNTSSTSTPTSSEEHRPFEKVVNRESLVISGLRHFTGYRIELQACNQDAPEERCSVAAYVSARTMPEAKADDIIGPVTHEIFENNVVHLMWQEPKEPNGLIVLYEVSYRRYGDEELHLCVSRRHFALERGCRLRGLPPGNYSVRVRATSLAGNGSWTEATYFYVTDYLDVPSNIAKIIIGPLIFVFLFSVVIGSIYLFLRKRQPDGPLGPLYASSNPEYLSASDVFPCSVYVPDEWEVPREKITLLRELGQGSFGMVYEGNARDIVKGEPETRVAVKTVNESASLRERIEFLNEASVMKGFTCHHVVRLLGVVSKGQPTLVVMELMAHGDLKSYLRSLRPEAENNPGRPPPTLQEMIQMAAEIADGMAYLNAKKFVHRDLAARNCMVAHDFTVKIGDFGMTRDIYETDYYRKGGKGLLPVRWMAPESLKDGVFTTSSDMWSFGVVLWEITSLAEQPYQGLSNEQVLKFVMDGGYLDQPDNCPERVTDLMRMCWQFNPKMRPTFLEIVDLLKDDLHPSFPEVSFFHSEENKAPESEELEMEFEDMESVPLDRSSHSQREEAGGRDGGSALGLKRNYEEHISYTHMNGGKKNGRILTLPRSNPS
T4 sequence (P15127 other isoform, or with tags, fused parts or gaps limits assumed): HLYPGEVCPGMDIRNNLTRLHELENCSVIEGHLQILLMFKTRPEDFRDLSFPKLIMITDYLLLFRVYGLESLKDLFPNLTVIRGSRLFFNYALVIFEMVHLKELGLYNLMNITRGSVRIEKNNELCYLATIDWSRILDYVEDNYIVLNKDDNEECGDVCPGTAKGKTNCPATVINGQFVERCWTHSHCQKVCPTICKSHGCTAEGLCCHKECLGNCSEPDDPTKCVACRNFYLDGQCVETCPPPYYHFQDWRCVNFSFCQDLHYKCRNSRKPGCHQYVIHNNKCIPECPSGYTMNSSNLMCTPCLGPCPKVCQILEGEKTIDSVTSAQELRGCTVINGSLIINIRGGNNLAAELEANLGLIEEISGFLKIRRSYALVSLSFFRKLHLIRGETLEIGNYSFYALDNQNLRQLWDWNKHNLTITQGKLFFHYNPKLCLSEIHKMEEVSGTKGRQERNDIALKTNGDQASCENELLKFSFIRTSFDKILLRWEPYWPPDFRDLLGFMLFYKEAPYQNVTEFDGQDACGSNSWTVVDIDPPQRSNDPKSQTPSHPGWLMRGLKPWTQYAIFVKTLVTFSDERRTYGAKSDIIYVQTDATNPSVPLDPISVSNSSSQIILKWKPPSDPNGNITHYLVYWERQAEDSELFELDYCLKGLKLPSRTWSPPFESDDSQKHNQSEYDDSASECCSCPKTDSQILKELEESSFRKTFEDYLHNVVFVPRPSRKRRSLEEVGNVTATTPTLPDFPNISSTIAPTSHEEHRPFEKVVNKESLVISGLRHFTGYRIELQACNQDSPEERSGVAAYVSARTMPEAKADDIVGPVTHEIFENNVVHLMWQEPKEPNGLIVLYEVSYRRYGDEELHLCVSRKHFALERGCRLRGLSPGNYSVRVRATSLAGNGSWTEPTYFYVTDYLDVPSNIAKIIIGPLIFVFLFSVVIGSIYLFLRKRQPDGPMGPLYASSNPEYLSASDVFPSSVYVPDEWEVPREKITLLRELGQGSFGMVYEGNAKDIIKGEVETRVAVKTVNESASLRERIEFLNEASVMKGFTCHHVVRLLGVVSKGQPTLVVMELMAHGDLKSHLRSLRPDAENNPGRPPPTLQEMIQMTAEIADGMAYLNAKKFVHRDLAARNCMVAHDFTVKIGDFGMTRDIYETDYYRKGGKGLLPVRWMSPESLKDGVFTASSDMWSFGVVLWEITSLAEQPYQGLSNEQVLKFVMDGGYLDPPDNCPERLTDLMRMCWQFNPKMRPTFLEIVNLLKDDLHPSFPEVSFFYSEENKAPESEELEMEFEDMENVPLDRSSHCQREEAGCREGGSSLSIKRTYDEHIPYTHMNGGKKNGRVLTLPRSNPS
T1 sequence (alpha, as listed by the source limits assumed, stated change not applied, form in doubt, chain 1 of 2): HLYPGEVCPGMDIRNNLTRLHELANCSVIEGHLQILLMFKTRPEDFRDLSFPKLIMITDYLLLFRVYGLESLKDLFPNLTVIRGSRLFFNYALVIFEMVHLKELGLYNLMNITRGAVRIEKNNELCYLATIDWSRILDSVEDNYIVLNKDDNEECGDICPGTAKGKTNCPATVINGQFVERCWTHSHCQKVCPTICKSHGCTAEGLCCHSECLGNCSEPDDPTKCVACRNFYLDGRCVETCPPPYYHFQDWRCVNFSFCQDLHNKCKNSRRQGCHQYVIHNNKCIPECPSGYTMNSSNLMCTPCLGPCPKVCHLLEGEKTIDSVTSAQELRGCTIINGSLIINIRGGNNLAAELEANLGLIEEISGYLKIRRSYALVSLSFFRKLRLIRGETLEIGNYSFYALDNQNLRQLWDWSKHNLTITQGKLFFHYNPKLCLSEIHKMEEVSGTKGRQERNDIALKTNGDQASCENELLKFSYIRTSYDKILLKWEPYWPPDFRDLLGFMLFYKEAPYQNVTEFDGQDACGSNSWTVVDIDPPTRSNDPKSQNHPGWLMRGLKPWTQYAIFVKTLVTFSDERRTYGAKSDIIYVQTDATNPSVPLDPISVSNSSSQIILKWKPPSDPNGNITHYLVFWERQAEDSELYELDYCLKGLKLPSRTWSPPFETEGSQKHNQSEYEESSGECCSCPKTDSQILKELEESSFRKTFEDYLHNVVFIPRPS
T1 sequence (beta, as listed by the source limits assumed, stated change not applied, form in doubt, chain 2 of 2): as the sequence (beta, as listed by the source limits assumed, stated change not applied, form in doubt, chain 2 of 2) above

Regarding “MeO-PEG5000-SLEEEWAQIECEVYGRGCPSESFYDWFERQL ({MeO‑PEG5000}-SLEEEWAQIECEVYGRGCPSESFYDWFERQL; cysteine pairing not given here) [compound 660]”, the “relative affinity RIR +11” value in assay [1] is on record as 9.

On to Ac-SLEEEWAQIQCEVWGRGCPSESFYDWFERQL (cysteine pairing not given here) [S636], for which the relative affinity in assay [2] turned out to be 32; in assay [3], 106; in assay [4] it was 68; in assay [5], 50; in assay [7], 117; in assay [8] it was 79. In addition, the “EC50 (FFC)” value in assay [6] was determined as 0.056 nM. Moreover, in assay [6], the “EC50 (FFC) rel. to HI” value is 98%.

In the case of Ac-SLEEEWAQIQCEVWGRGCPSESFYGWFERQL (cysteine pairing not given here) [S667], the relative affinity is 47 in assay [2]; 111 in assay [3]; 84 in assay [4]; 44 in assay [5]; 127 in assay [7]; 112 in assay [8]. In assay [6], the “EC50 (FFC)” value was 0.21 nM. Further, the “EC50 (FFC) rel. to HI” value in assay [6] was determined as 31%.

Turning to {MeO‑PEG5000}-SLEEEWAQIECEVYGRGCPSESFYDWFERQL (cysteine pairing not given here) [S660], the relative affinity in assay [2] stood at 5.5; in assay [3], 52; in assay [4] it was 12; in assay [5] it was 6.5; in assay [7] it was 58; in assay [8], 9. The “EC50 (FFC)” value in assay [6] came to 2 nM. In assay [6], the “EC50 (FFC) rel. to HI” value was determined as 3.3%.

SLEEEWAQVECEVYERGCPSESFYDWFERQL [S696]: the relative affinity in assay [2] came out at 0.3; in assay [3], 3.3; in assay [4], 0.8; in assay [5], 0.3; in assay [7] it was 3.1; in assay [8], 0.2. Moreover, the “EC50 (FFC)” value in assay [6] stood at 870 nM.

Consider Ac-SLEEEWAQIQCEVWGRGCPSESFYDWFERQLG (cysteine pairing not given here) [S671], for which the relative affinity stood at 23 in assay [2]; 86 in assay [3]; 39 in assay [5]; 98 in assay [7]; 65 in assay [8]. Besides, the “EC50 (FFC)” value in assay [6] is 0.1 nM. The “EC50 (FFC) rel. to HI” value in assay [6] was 65%.

Take Ac-SLEEEWAQIQCEVWGRGCPSESFYGWFERQLG (cysteine pairing not given here) [S733]: the relative affinity was found to be 111 in assay [2]; 281 in assay [3]; 228 in assay [4]; 179 in assay [5]; 290 in assay [7]; 211 in assay [8]. In addition, in assay [6], the “EC50 (FFC)” value amounted to 0.12 nM. The “EC50 (FFC) rel. to HI” value in assay [6] was 61%.

As for SLEEEWAQIEAEVWGRGAPSESFYDWFERQLG [S574], the relative affinity in assay [2] turned out to be 0.2; in assay [3], 8.3; in assay [4], 0.4; in assay [5], 0.9; in assay [7] it was 8.2; in assay [8], 2.

(Values after patent US20100298213A1, “Pharmaceutically Active Insulin Receptor-Modulating Molecules” (Novo Nordisk A/S, priority 2004, published 2010).)
